Target: T1, CCT
T1 construct: Take 20S mouse testis sucrose gradient fractions enriched in CCT; from tissue; host or cells: mouse testis, 20S sucrose gradient fractions
Experiment: CCT binding to immobilised actin peptide array (Pepset pins, MAb 91a ELISA, absorbance 410 nm)
Details: FIG. 9; mouse testis CCT
Source text: Peptides of 15 amino acids in length were synthesised on polyethylene pins mounted on blocks according to the method of Maeji et al (Maeji N. J. et al, 1994) and commercially available under the trade name of Pepsets™ from Chiron Mimotopes. The sequence of the peptides were such that they defined the full length of the actin sequence with a 5 amino acid overlap between the sequential peptides, and selected peptides representing key known structures in actin (Table 2 annotated). The peptides are synthesised on polyethylene pins which are presented to be compatible with standard 96 well microtitre plates. The pins become the solid phase on which interactions with CCT complexes can be probed. The method is described below. • 1. Take Pepset pins from storage at −20(° C.) and equilibrate at room temperature. • 2. Wash pins with PBS for 10 minutes at room temperature on a shaking table. • 3. Incubate pins with blocking buffer (2% w/v BSA 0.1% Tween 20 in PBS) for 60 minutes at room temperature on a shaker. • 4. Wash pins with PBS for 10 minutes at room temperature on a shaker (times 1) • 5. […] Remove pins from the microtitre plate and read the microtitre plate at 410 nm on a Dynatech ELISA plate reader. • 16. Results are expressed as a 410 nm absorbance reading for each well corresponding to each unique substrate peptide from the actin molecule. […]

GGTTMYPGIADRMQK [substrate peptide 61]
CCT binding to immobilised substrate peptide (410 nm absorbance reading): new protein interaction site

— US7018791B1, “Binding complexes” (Institute of Cancer Research: Royal Cancer Hospital, priority 1997, dated 2006)
